Measured values published in publication PMC4710668, “Bioactivation of food genotoxicants 5-hydroxymethylfurfural and furfuryl alcohol by sulfotransferases from human, mouse and rat: a comparative study” (Archives of Toxicology, 2014).

B1: mSult1d1 (Mus musculus) (protein)
chain: MDNKLDVFRRELVDVEGIPLFWSIAEHWSQVESFEARPDDILISTYPKSGTTWVSEILDLIYNNGDAEKCKRDAIYKRVPFMELIIPGITNGVEMLNNMPSPRIVKTHLPVQLLPSSFWKNDCKIIYVARNAKDVVVSYYYFYQMAKIHPEPGTWEEFLEKFMAGQVSFGPWYDHVKSWWEKRKEYRILYLFYEDMKENPKCEIQKILKFLEKDIPEEILNKILYHSSFSVMKENPSANYTTMMKEEMDHSVSPFMRKGISGDWKNQFTVAQYEKFEEDYVKKMEDSTLKFRSEI
notes: made in house; host or cells: Salmonella typhimurium TA1538 (cytosolic fraction, enzyme not purified)
B2: rSult1a1 (Rattus norvegicus) (protein)
chain: MEFSRPPLVHVKGIPLIKYFAETIGPLQNFTAWPDDLLISTYPKSGTTWMSEILDMIYQGGKLEKCGRAPIYARVPFLEFKCPGVPSGLETLEETPAPRLLKTHLPLSLLPQSLLDQKVKVIYIARNAKDVVVSYYNFYNMAKLHPDPGTWDSFLENFMDGEVSYGSWYQHVKEWWELRHTHPVLYLFYEDIKENPKREIKKILEFLGRSLPEETVDSIVHHTSFKKMKENCMTNYTTIPTEIMDHNVSPFMRKGTTGDWKNTFTVAQNERFDAHYAKTMTDCDFKFRCEL
notes: as for B1
B3: rSult1c1 (Rattus norvegicus) (protein)
chain: MSLEKMKDLHLGEQDLQPETREVNGILMSKLMSDNWDKIWNFQAKPDDLLIATYAKAGTTWTQEIVDMIQNDGDVQKCQRANTYDRHPFIEWTLPSPLNSGLDLANKMPSPRTLKTHLPVHMLPPSFWKENSKIIYVARNAKDCLVSYYYFSRMNKMLPDPGTLGEYIEQFKAGKVLWGSWYDHVKGWWDVKDQHRILYLFYEDMKEDPKREIKKIAKFLEKDISEEVLNKIIYHTSFDVMKENPMANYTTLPSSIMDHSISPFMRKGMPGDWKNYFTVAQSEDFDEDYRRKMAGSNITFRTEI
notes: as for B1
B4: hSULT1A1 (Homo sapiens) (protein)
chain: MELIQDTSRPPLEYVKGVPLIKYFAEALGPLQSFQARPDDLLISTYPKSGTTWVSQILDMIYQGGDLEKCHRAPIFMRVPFLEFKAPGIPSGMETLKDTPAPRLLKTHLPLALLPQTLLDQKVKVVYVARNAKDVAVSYYHFYHMAKVHPEPGTWDSFLEKFMVGEVSYGSWYQHVQEWWELSRTHPVLYLFYEDMKENPKREIQKILEFVGRSLPEETVDFVVQHTSFKEMKKNPMTNYTTVPQEFMDHSISPFMRKGMAGDWKTTFTVAQNERFDADYAEKMAGCSLSFRSEL
notes: made in house; host or cells: Salmonella typhimurium TA1538 (cytosolic fraction, not purified)
B5: hSULT1A2 (Homo sapiens) (protein)
chain: MELIQDISRPPLEYVKGVPLIKYFAEALGPLQSFQARPDDLLISTYPKSGTTWVSQILDMIYQGGDLEKCHRAPIFMRVPFLEFKVPGIPSGMETLKNTPAPRLLKTHLPLALLPQTLLDQKVKVVYVARNAKDVAVSYYHFYHMAKVYPHPGTWESFLEKFMAGEVSYGSWYQHVQEWWELSRTHPVLYLFYEDMKENPKREIQKILEFVGRSLPEETVDLMVEHTSFKEMKKNPMTNYTTVRREFMDHSISPFMRKGMAGDWKTTFTVAQNERFDADYAKKMAGCSLSFRSEL
notes: as for B4
B6: hSULT1A3 (Homo sapiens) (protein)
chain: MELIQDTSRPPLEYVKGVPLIKYFAEALGPLQSFQARPDDLLINTYPKSGTTWVSQILDMIYQGGDLEKCNRAPIYVRVPFLEVNDPGEPSGLETLKDTPPPRLIKSHLPLALLPQTLLDQKVKVVYVARNPKDVAVSYYHFHRMEKAHPEPGTWDSFLEKFMAGEVSYGSWYQHVQEWWELSRTHPVLYLFYEDMKENPKREIQKILEFVGRSLPEETMDFMVQHTSFKEMKKNPMTNYTTVPQELMDHSISPFMRKGMAGDWKTTFTVAQNERFDADYAEKMAGCSLSFRSEL
notes: as for B4
B7: hSULT1C2 (Homo sapiens) (protein)
chain: MALHDMEDFTFDGTKRLSVNYVKGILQPTDTCDIWDKIWNFQAKPDDLLISTYPKAGTTWTQEIVELIQNEGDVEKSKRAPTHQRFPFLEMKIPSLGSGLEQAHAMPSPRILKTHLPFHLLPPSLLEKNCKIIYVARNPKDNMVSYYHFQRMNKALPAPGTWEEYFETFLAGKVCWGSWHEHVKGWWEAKDKHRILYLFYEDMKKNPKHEIQKLAEFIGKKLDDKVLDKIVHYTSFDVMKQNPMANYSSIPAEIMDHSISPFMRKGAVGDWKKHFTVAQNERFDEDYKKKMTDTRLTFHFQF
notes: as for B4
B8: mSult1a1 (Mus musculus) (protein)
chain: MEPLRKPLVPVKGIPLIKYFAETMEQLQNFTAWPDDVLISTYPKSGTNWMSEIMDMIYQGGKLDKCGRAPVYARIPFLEFSCPGVPPGLETLKETPAPRIIKTHLPLSLLPQSLLDQKIKVIYVARNAKDVVVSYYNFYKMAKLHPDPGTWESFLENFMDGKVSYGSWYQHVKEWWELRRTHPVLYLFYEDMKENPKREIKKILEFLGRSLPEETVDLIVHHTSFKKMKENPMANYTTIPTEVMDHTIYPFMRKGTIGDWKNTFTVAQSEHFDAHYAKLMTGCDFTFRCQI
notes: as for B1

Legend:
Assay in all cases: HMF sulfoconjugation assay
Details in all cases: other: catalytic efficiency of HMF sulfoconjugation; pH 7.4
[1] = substrate: O=Cc1ccc(CO)o1; assay type: biochemical, mouse
Procedure: (§1) Cytosolic fractions containing individual SULT forms were prepared from transgenic S. typhimurium TA1538. Table S1 in the Supplementary Material provides a summary of the thirty SULTs used in the current study together with references describing the cloning of the respective S. typhimurium TA1538 strains. The expressed SULT forms are denoted with the prefixes h, m and r for human, mouse and rat enzymes, respectively. Bacteria were grown in Luria Broth medium containing ampicillin (100 µg/ml) by stirring for 8 h at 200 revolutions/min at 37 °C. The bacterial suspensions were centrifuged at 5,000 g for 10 min. […] The protein concentrations were determined according to a bicinchoninic acid (BCA) assay protocol. […]
(§2) The reactions were conducted in mixtures of 100 µl containing 25–200 µg protein, 50 mM potassium phosphate buffer (pH 7.4), 5 mM MgCl2, 50 µM PAPS and different concentrations of HMF at 37 °C. Preliminary experiments ensured that measurements were recorded under ‘linear’ conditions, i.e., doubling of protein concentration or incubation time was doubling the amount of sulfate ester formed. […]
(§3) SMF concentrations of the clear supernatants were analyzed by UPLC-MS/MS. The protocol was adapted from the quantification of SMF in plasma samples of HMF-treated mice (Monien et al. [2009]). […]

[2] = substrate: O=Cc1ccc(CO)o1; assay type: biochemical, rat
Procedure: as §1, §2, §3

[3] = substrate: O=Cc1ccc(CO)o1; assay type: biochemical, human
Procedure: Cytosolic fractions containing individual SULT forms were prepared from transgenic S. typhimurium TA1538. Table S1 in the Supplementary Material provides a summary of the thirty SULTs used in the current study together with references describing the cloning of the respective S. typhimurium TA1538 strains. The expressed SULT forms are denoted with the prefixes h, m and r for human, mouse and rat enzymes, respectively. Bacteria were grown in Luria Broth medium containing ampicillin (100 µg/ml) by stirring for 8 h at 200 revolutions/min at 37 °C. The bacterial suspensions were centrifuged at 5,000 g for 10 min. The sediments were washed twice with 25 ml of 10 mM potassium phosphate buffer (pH 7.4)/50 mM potassium chloride (KCP buffer) and centrifuged again. The pellets were taken up in 800 µl KCP buffer and sonicated thrice for 15 s with 30 s pauses in between. The soluble fraction was attained by centrifuging for 1 h at 100,000 g. The supernatants (in the following termed cytosolic preparations) were frozen at −80 °C. The protein concentrations were determined according to a bicinchoninic acid (BCA) assay protocol. The SULT concentrations in the cytosolic preparations were estimated after electrophoretic separation and immunodetection using inclusion bodies of different SULT forms as standards (Teubner et al. [2007]). The preparation of SULT inclusion bodies and the immunodetection of SULTs is described in the Supplementary Material, which also contains a representative immunoblot of different amounts of rSult1a1standard and a cytosolic preparation of S. typhimurium expressing rSult1a1 (Fig. S1).
as §2
SMF concentrations of the clear supernatants were analyzed by UPLC-MS/MS. The protocol was adapted from the quantification of SMF in plasma samples of HMF-treated mice (Monien et al. [2009]). In short, the supernatants were analyzed using a UPLC system (Waters) connected to a Quattro Premier XE tandem quadrupole mass spectrometer (Waters) using the negative electrospray ionization mode. […] The fragmentation reactions of SMF yielding two principal ions, the sulfate ion radical (m/z = 204.9 → 96.0) and the protonated sulfonate ion (m/z = 204.9 → 81.0) were monitored. […] SMF was quantified using an external calibration line that was linear in the concentration range of 1.0 nM (4 fmol/injection) to 2,500 (10 pmol/injection) SMF (r ^2 ≥ 0.99). […]

Protein | kcat/Km [3] [M⁻¹ s⁻¹] | further results
B1 | – | kcat/Km [1]: 4.8 M⁻¹ s⁻¹
B2 | – | kcat/Km [2]: 5.3 M⁻¹ s⁻¹
B3 | – | kcat/Km [2]: 0.12 M⁻¹ s⁻¹
B4 | 13.7 | –
B5 | 0.71 | –
B6 | 0.26 | –
B7 | 0.73 | –
B8 | – | kcat/Km [1]: 15.8 M⁻¹ s⁻¹
